Reference: publication PMC4252739 (Cell host & microbe, 2014)

How the values were obtained:
[1] = biological target: HIV-1 CA A14C/E45C cross-linked tubular assemblies (HIV-1); experiment: co-sedimentation
SEC [2] = biological target: the molecule itself; experiment: SEC
SEC [3] = biological target: the molecule itself; experiment: SEC; remark: listed apart in the source

| Binder | binding specificity (percent of input co-pelleted, background corrected) [1] | further results |
| --- | --- | --- |
| MxB_(84YRGK) (6xHis-MxB residues 84-715 with YRGK487-490AAAA) (domain or fragment) GPENNLYSQYEQKVRPCIDLIDSLRALGVEQDLALPAIAVIGDQSSGKSSVLEALSGVALPRGSGIVTRCPLVLKLKKQPCEAWAGRISYRNTELELQDPGQVEKEIHKAQNVMAGNGRGISHELISLEITSPEVPDLTIIDLPGITRVAVDNQPRDIGLQIKALIKKYIQRQQTINLVVVPCNVDIATTEALSMAHEVDPEGDRTIGILTKPDLMDRGTEKSVMNVVRNLTYPLKKGYMIVKCRGQQEITNRLSLAEATKKEITFFQTHPYFRVLLEEGSATVPRLAERLTTELIMHIQKSLPLLEGQIRESHQKATEELRRCGADIPSQEADKMFFLIEKIKMFNQDIEKLVEGEEVVRENETRLYNKIREDFKNWVGILATNTQKVKNIIHEEVEKYEKQAAAAELLGFVNYKTFEIIVHQYIQQLVEPALSMLQKAMEIIQQAFINVAKKHFGEFFNLNQTVQSTIEDIKVKHTAKAENMIQLQFRMEQMVFCQDQIYSVVLKKVREEIFNPLGTPSQNMKLNSHFPSNESSVSSFTEIGIHLNAYFLETSKRLANQIPFIIQYFMLRENGDSLQKAMMQILQEKNRYSWLLQEQSETATKRRILKERIYRLTQARHALCQFSSKEIH |  | percent co-sedimented with CA [1]: 9% |
| MxB_(84YRGK/M574D) (domain or fragment, UniProt P20592 84-715, looked up) GPENNLYSQYEQKVRPCIDLIDSLRALGVEQDLALPAIAVIGDQSSGKSSVLEALSGVALPRGSGIVTRCPLVLKLKKQPCEAWAGRISYRNTELELQDPGQVEKEIHKAQNVMAGNGRGISHELISLEITSPEVPDLTIIDLPGITRVAVDNQPRDIGLQIKALIKKYIQRQQTINLVVVPCNVDIATTEALSMAHEVDPEGDRTIGILTKPDLMDRGTEKSVMNVVRNLTYPLKKGYMIVKCRGQQEITNRLSLAEATKKEITFFQTHPYFRVLLEEGSATVPRLAERLTTELIMHIQKSLPLLEGQIRESHQKATEELRRCGADIPSQEADKMFFLIEKIKMFNQDIEKLVEGEEVVRENETRLYNKIREDFKNWVGILATNTQKVKNIIHEEVEKYEKQAAAAELLGFVNYKTFEIIVHQYIQQLVEPALSMLQKAMEIIQQAFINVAKKHFGEFFNLNQTVQSTIEDIKVKHTAKAENMIQLQFRDEQMVFCQDQIYSVVLKKVREEIFNPLGTPSQNMKLNSHFPSNESSVSSFTEIGIHLNAYFLETSKRLANQIPFIIQYFMLRENGDSLQKAMMQILQEKNRYSWLLQEQSETATKRRILKERIYRLTQARHALCQFSSKEIH |  | binding result (SEC [2]): binds |
| MxB-HA K663D (natural protein) MSKAHKPWPYRRRSQFSSRKYLKKEMNSFQQQPPPFGTVPPQMMFPPNWQGAEKDAAFLAKDFNFLTLNNQPPPGNRSQPRAMGPENNLYSQYEQKVRPCIDLIDSLRALGVEQDLALPAIAVIGDQSSGKSSVLEALSGVALPRGSGIVTRCPLVLKLKKQPCEAWAGRISYRNTELELQDPGQVEKEIHKAQNVMAGNGRGISHELISLEITSPEVPDLTIIDLPGITRVAVDNQPRDIGLQIKALIKKYIQRQQTINLVVVPCNVDIATTEALSMAHEVDPEGDRTIGILTKPDLMDRGTEKSVMNVVRNLTYPLKKGYMIVKCRGQQEITNRLSLAEATKKEITFFQTHPYFRVLLEEGSATVPRLAERLTTELIMHIQKSLPLLEGQIRESHQKATEELRRCGADIPSQEADKMFFLIEKIKMFNQDIEKLVEGEEVVRENETRLYNKIREDFKNWVGILATNTQKVKNIIHEEVEKYEKQYRGKELLGFVNYKTFEIIVHQYIQQLVEPALSMLQKAMEIIQQAFINVAKKHFGEFFNLNQTVQSTIEDIKVKHTAKAENMIQLQFRMEQMVFCQDQIYSVVLKKVREEIFNPLGTPSQNMKLNSHFPSNESSVSSFTEIGIHLNAYFLETSKRLANQIPFIIQYFMLRENGDSLQDAMMQILQEKNRYSWLLQEQSETATKRRILKERIYRLTQARHALCQFSSKEIH | 27% |  |
| MBP-MxB_(1-715 IKM/DDD) (natural protein, UniProt P20592 1-715, looked up) MSKAHKPWPYRRRSQFSSRKYLKKEMNSFQQQPPPFGTVPPQMMFPPNWQGAEKDAAFLAKDFNFLTLNNQPPPGNRSQPRAMGPENNLYSQYEQKVRPCIDLIDSLRALGVEQDLALPAIAVIGDQSSGKSSVLEALSGVALPRGSGIVTRCPLVLKLKKQPCEAWAGRISYRNTELELQDPGQVEKEIHKAQNVMAGNGRGISHELISLEITSPEVPDLTIIDLPGITRVAVDNQPRDIGLQIKALIKKYIQRQQTINLVVVPCNVDIATTEALSMAHEVDPEGDRTIGILTKPDLMDRGTEKSVMNVVRNLTYPLKKGYMIVKCRGQQEITNRLSLAEATKKEITFFQTHPYFRVLLEEGSATVPRLAERLTTELIMHIQKSLPLLEGQIRESHQKATEELRRCGADIPSQEADKMFFLDEKIKMFNQDIEKLVEGEEVVRENETRLYNKIREDFKNWVGILATNTQKVKNIIHEEVEKYEKQYRGKELLGFVNYKTFEIIVHQYIQQLVEPALSMLQKAMEIIQQAFINVAKKHFGEFFNLNQTVQSTIEDIKVKHTAKAENMIQLQFRMEQMVFCQDQIYSVVLKKVREEIFNPLGTPSQNMKLNSHFPSNESSVSSFTEIGIHLNAYFLETSKRLANQIPFIIQYFMLRENGDSLQDAMDQILQEKNRYSWLLQEQSETATKRRILKERIYRLTQARHALCQFSSKEIH |  | stoichiometry N (SEC [3]): 2 |
| MxB-HA M666D (natural protein) MSKAHKPWPYRRRSQFSSRKYLKKEMNSFQQQPPPFGTVPPQMMFPPNWQGAEKDAAFLAKDFNFLTLNNQPPPGNRSQPRAMGPENNLYSQYEQKVRPCIDLIDSLRALGVEQDLALPAIAVIGDQSSGKSSVLEALSGVALPRGSGIVTRCPLVLKLKKQPCEAWAGRISYRNTELELQDPGQVEKEIHKAQNVMAGNGRGISHELISLEITSPEVPDLTIIDLPGITRVAVDNQPRDIGLQIKALIKKYIQRQQTINLVVVPCNVDIATTEALSMAHEVDPEGDRTIGILTKPDLMDRGTEKSVMNVVRNLTYPLKKGYMIVKCRGQQEITNRLSLAEATKKEITFFQTHPYFRVLLEEGSATVPRLAERLTTELIMHIQKSLPLLEGQIRESHQKATEELRRCGADIPSQEADKMFFLIEKIKMFNQDIEKLVEGEEVVRENETRLYNKIREDFKNWVGILATNTQKVKNIIHEEVEKYEKQYRGKELLGFVNYKTFEIIVHQYIQQLVEPALSMLQKAMEIIQQAFINVAKKHFGEFFNLNQTVQSTIEDIKVKHTAKAENMIQLQFRMEQMVFCQDQIYSVVLKKVREEIFNPLGTPSQNMKLNSHFPSNESSVSSFTEIGIHLNAYFLETSKRLANQIPFIIQYFMLRENGDSLQKAMDQILQEKNRYSWLLQEQSETATKRRILKERIYRLTQARHALCQFSSKEIH | 26% |  |
| MxB-HA E681A (natural protein) MSKAHKPWPYRRRSQFSSRKYLKKEMNSFQQQPPPFGTVPPQMMFPPNWQGAEKDAAFLAKDFNFLTLNNQPPPGNRSQPRAMGPENNLYSQYEQKVRPCIDLIDSLRALGVEQDLALPAIAVIGDQSSGKSSVLEALSGVALPRGSGIVTRCPLVLKLKKQPCEAWAGRISYRNTELELQDPGQVEKEIHKAQNVMAGNGRGISHELISLEITSPEVPDLTIIDLPGITRVAVDNQPRDIGLQIKALIKKYIQRQQTINLVVVPCNVDIATTEALSMAHEVDPEGDRTIGILTKPDLMDRGTEKSVMNVVRNLTYPLKKGYMIVKCRGQQEITNRLSLAEATKKEITFFQTHPYFRVLLEEGSATVPRLAERLTTELIMHIQKSLPLLEGQIRESHQKATEELRRCGADIPSQEADKMFFLIEKIKMFNQDIEKLVEGEEVVRENETRLYNKIREDFKNWVGILATNTQKVKNIIHEEVEKYEKQYRGKELLGFVNYKTFEIIVHQYIQQLVEPALSMLQKAMEIIQQAFINVAKKHFGEFFNLNQTVQSTIEDIKVKHTAKAENMIQLQFRMEQMVFCQDQIYSVVLKKVREEIFNPLGTPSQNMKLNSHFPSNESSVSSFTEIGIHLNAYFLETSKRLANQIPFIIQYFMLRENGDSLQKAMMQILQEKNRYSWLLQAQSETATKRRILKERIYRLTQARHALCQFSSKEIH | 9.8% |  |
| MxB-HA Y651D (natural protein) MSKAHKPWPYRRRSQFSSRKYLKKEMNSFQQQPPPFGTVPPQMMFPPNWQGAEKDAAFLAKDFNFLTLNNQPPPGNRSQPRAMGPENNLYSQYEQKVRPCIDLIDSLRALGVEQDLALPAIAVIGDQSSGKSSVLEALSGVALPRGSGIVTRCPLVLKLKKQPCEAWAGRISYRNTELELQDPGQVEKEIHKAQNVMAGNGRGISHELISLEITSPEVPDLTIIDLPGITRVAVDNQPRDIGLQIKALIKKYIQRQQTINLVVVPCNVDIATTEALSMAHEVDPEGDRTIGILTKPDLMDRGTEKSVMNVVRNLTYPLKKGYMIVKCRGQQEITNRLSLAEATKKEITFFQTHPYFRVLLEEGSATVPRLAERLTTELIMHIQKSLPLLEGQIRESHQKATEELRRCGADIPSQEADKMFFLIEKIKMFNQDIEKLVEGEEVVRENETRLYNKIREDFKNWVGILATNTQKVKNIIHEEVEKYEKQYRGKELLGFVNYKTFEIIVHQYIQQLVEPALSMLQKAMEIIQQAFINVAKKHFGEFFNLNQTVQSTIEDIKVKHTAKAENMIQLQFRMEQMVFCQDQIYSVVLKKVREEIFNPLGTPSQNMKLNSHFPSNESSVSSFTEIGIHLNAYFLETSKRLANQIPFIIQDFMLRENGDSLQKAMMQILQEKNRYSWLLQEQSETATKRRILKERIYRLTQARHALCQFSSKEIH | < 0.1% |  |
| MBP-MxB_(1-715 IK/DD) (natural protein, UniProt P20592 1-715, looked up) MSKAHKPWPYRRRSQFSSRKYLKKEMNSFQQQPPPFGTVPPQMMFPPNWQGAEKDAAFLAKDFNFLTLNNQPPPGNRSQPRAMGPENNLYSQYEQKVRPCIDLIDSLRALGVEQDLALPAIAVIGDQSSGKSSVLEALSGVALPRGSGIVTRCPLVLKLKKQPCEAWAGRISYRNTELELQDPGQVEKEIHKAQNVMAGNGRGISHELISLEITSPEVPDLTIIDLPGITRVAVDNQPRDIGLQIKALIKKYIQRQQTINLVVVPCNVDIATTEALSMAHEVDPEGDRTIGILTKPDLMDRGTEKSVMNVVRNLTYPLKKGYMIVKCRGQQEITNRLSLAEATKKEITFFQTHPYFRVLLEEGSATVPRLAERLTTELIMHIQKSLPLLEGQIRESHQKATEELRRCGADIPSQEADKMFFLDEKIKMFNQDIEKLVEGEEVVRENETRLYNKIREDFKNWVGILATNTQKVKNIIHEEVEKYEKQYRGKELLGFVNYKTFEIIVHQYIQQLVEPALSMLQKAMEIIQQAFINVAKKHFGEFFNLNQTVQSTIEDIKVKHTAKAENMIQLQFRMEQMVFCQDQIYSVVLKKVREEIFNPLGTPSQNMKLNSHFPSNESSVSSFTEIGIHLNAYFLETSKRLANQIPFIIQYFMLRENGDSLQDAMMQILQEKNRYSWLLQEQSETATKRRILKERIYRLTQARHALCQFSSKEIH | 40% | stoichiometry N (SEC [3]): 2 |
